Test results as given in patent US20140296491A1 (MILTENYI BIOTECH, published 2014).

How the values were obtained:
[1] = target: T1, human CD8 on CD8+ cells of human PBMCs (human, UniProt P01732 22-235); assay: phage display selection on hCD8a with EDTA elution, then clone screening
T1 construct: whole, on cells; Immunization and panning used recombinant hCD8a (Ser 22-Asp 182, His tag); The flow cytometry used native CD8 on PBMCs; also called hCD8; hCD8a
Protocol: Flow cytometry results of screened clones of library 2a from EDTA eluates after panning cycle IIb with triple depletion of Ca2+ independent hCD8a binders. After exclusion of dead cells and cell debris CD8+ cells were identified as a CD3+/CD4− cell population. hCD8-specific Fabs were detected by anti-polyhistidine-PE (anti-HIS-PE). Mean fluorescence intensities (MFI) of anti-HIS-PE staining were plotted to evaluate the influence of 10 mM EDTA. 75_A1 (uninoculated medium) and 75_C1 (anti-MUC1 scFv expressing clone) were negative controls, while 75_B1 (CD8 BW135/80) served as positive control. FIG. 7: MFI before and after addition of EDTA. FIG. 8: MFI ratio (−)EDTA/(+)EDTA. FIG. 9: Dot plots of clone KRR75_G1 before and after the addition of 10 mM EDTA.
Variations in panning process were tested to direct the selection towards Ca2+ dependent binding. […]
Clones generated by different selection procedures and stages were characterized upon hCD8 specificity and potential Ca2+ dependent binding. […] Supernatants of these cultures were analyzed for the presence hCD8 specific Fabs using a flow cytometric staining assay in the Ca2+ containing buffer HBSS (Hank's balanced salt solution) +0.5% BSA. […] Bound Fabs were detected via the polyhistidine tag of the Fab and an anti-polyhistidine tag-fluorochrome conjugate. […]

[2] = target: T1, human CD8 on CD8+ cells of human PBMCs; assay: flow cytometry on human CD8+ cells, before and after EDTA
Protocol: FIGS. 10, 11, and 12 show flow cytometry results of screened clones after panning cycle IIIb. Flow cytometry results of screened clones (see 4.4.2.2) of library 1a and 2a from EDTA eluates after panning cycle IIIb. After exclusion of dead cells and cell debris CD8+ cells were identified as a CD3+/CD4− cell population. hCD8 specific Fabs were detected by anti-His-PE. Mean fluorescence intensities (MFI) of anti-His-PE staining were plotted to evaluate the influence of 10 mM EDTA on staining with certain Fab clones. 77_A1 (uninoculated medium) and 77_C1 (anti-MUC1 scFv expressing clone) were negative controls, while 77_B1 (CD8 BW135/80) served as positive control for hCD8 staining. FIG. 10: MFI before and after addition of EDTA. FIG. 11: MFI ratio (−)EDTA/(+)EDTA. FIG. 12: Dot plot of clone KRR77_D1 before and after the addition of 10 mM EDTA.
Clones generated by different selection procedures and stages were characterized upon hCD8 specificity and potential Ca2+ dependent binding. Therefore, Fab expressions of single clones were performed in a microtiter plate format (150 μL). Supernatants of these cultures were analyzed for the presence hCD8 specific Fabs using a flow cytometric staining assay in the Ca2+ containing buffer HBSS (Hank's balanced salt solution) +0.5% BSA. […] Bound Fabs were detected via the polyhistidine tag of the Fab and an anti-polyhistidine tag-fluorochrome conjugate. […]

T1 sequence (P01732 22-235): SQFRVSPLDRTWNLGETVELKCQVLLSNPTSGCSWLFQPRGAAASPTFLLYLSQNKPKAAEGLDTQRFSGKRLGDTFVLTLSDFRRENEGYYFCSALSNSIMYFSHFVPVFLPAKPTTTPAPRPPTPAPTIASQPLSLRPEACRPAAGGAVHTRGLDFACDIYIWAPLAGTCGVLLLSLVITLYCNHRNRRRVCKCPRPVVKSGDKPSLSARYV

Binder | binding result [1] | binding result [2]
chimeric recombinant Fab CD8 KRR75_G1 (Fab, V domains shown, also called clone KRR75_G1) VH: EVQLQQSGPELVKPGASVKMSCKASGYTFTDYVISWMKQRTGQGLEWIGEIYPGSGSDYYNEKFKGKATLTADKSSNTAYMQLSSLTSEDSAVYFCARWGITDYFDVWGAGTTVTVSS VL: ETTVTQSPASLSMAIGEKVTIRCITSTDIDDDMNWYQQKPGEPPKLLISEGNTLRPGVPSRFSSSGYGTDFVFTIENMLSEDVADYYCLQSDNLPFTFGSGTKLEIK | binds | 
chimeric recombinant Fab CD8 KRR77_D1 (Fab, V domains shown, also called clone KRR77_D1) VH: QVQLKESGPGLVQPSQSLSITCTVSGFSLTSYGVHWVRQSPGKGLEWLGVIWRGGSTDYNAAFMSRLSITKDNSKSQVFFKMNSLQADDTAIYYCAKNSITPFAYWGQGTLVTVSA VL: ETTVTQSPASLSMAIGEKVTIRCITSTDIDDDMNWYQQKPGEPPKLLISEGNTLRPGVPSRFSSSGYGTDFVFTIENMLSEDVADYYCLQSDNLPFTFGSGTKLEIK |  | binds
